Measured values: patent US20060257938A1, “Method of screening for drugs that block ligand binding to a lipid binding protein” (priority 2005, published 2006)
Changes are numbered by the printed parent chain. Values joined by “and” are separate entries in the source; they are usually repeats but may differ in a detail not shown here. Identical values can stand only once.

B1: 31D2, 72A (protein, listed as Rattus norvegicus)
chain: AFDGTWKVDRNENYEKFMEKMGINVVKRKLDAHDNLKLTITQEGNKFTVKESSNFRNIDVVFELGVDFAYSAADGTELTGTWTMEGNKLVGKFKRVDNGKELIAVREISGNELIQTYTYEGVEAKRIFKKE
modifications: PEPTIDE (1)...(131) wild-type rat intestinal fatty acid binding protein
B2: 31R1, 72A (protein, listed as Rattus norvegicus)
chain: B1 chain with D31R
modifications: PEPTIDE (1)...(131) wild-type rat intestinal fatty acid binding protein
B3: 31Q3, 72A (protein, listed as Rattus norvegicus)
chain: B1 chain with D31Q
modifications: PEPTIDE (1)...(131) wild-type rat intestinal fatty acid binding protein
B4: 31F2, 72A (protein, listed as Rattus norvegicus)
chain: B1 chain with D31F
modifications: PEPTIDE (1)...(131) wild-type rat intestinal fatty acid binding protein
B5: 31V2, 72A (protein, listed as Rattus norvegicus)
chain: B1 chain with D31V
modifications: PEPTIDE (1)...(131) wild-type rat intestinal fatty acid binding protein
B6: 34P, 72A (protein, listed as Rattus norvegicus)
chain: B1 chain with D31G, D34P
modifications: PEPTIDE (1)...(131) wild-type rat intestinal fatty acid binding protein
B7: 31W2, 72A (protein, listed as Rattus norvegicus)
chain: B1 chain with D31W
modifications: PEPTIDE (1)...(131) wild-type rat intestinal fatty acid binding protein
B8: 34E, 72A (protein, listed as Rattus norvegicus)
chain: B1 chain with D31G, D34E
modifications: PEPTIDE (1)...(131) wild-type rat intestinal fatty acid binding protein
B9: 34N, 72A (protein, listed as Rattus norvegicus)
chain: B1 chain with D31G, D34N
modifications: PEPTIDE (1)...(131) wild-type rat intestinal fatty acid binding protein
B10: 31T2, 72A (protein, listed as Rattus norvegicus)
chain: B1 chain with D31T
modifications: PEPTIDE (1)...(131) wild-type rat intestinal fatty acid binding protein
B11: 34H, 72A (protein, listed as Rattus norvegicus)
chain: B1 chain with D31G, D34H
modifications: PEPTIDE (1)...(131) wild-type rat intestinal fatty acid binding protein
B12: 31P1, 72A (protein, listed as Rattus norvegicus)
chain: B1 chain with D31P
modifications: PEPTIDE (1)...(131) wild-type rat intestinal fatty acid binding protein
B13: 31E3, 72A (protein, listed as Rattus norvegicus)
chain: B1 chain with D31E
modifications: PEPTIDE (1)...(131) wild-type rat intestinal fatty acid binding protein
B14: 31K2, 72A (protein, listed as Rattus norvegicus)
chain: B1 chain with D31K
modifications: PEPTIDE (1)...(131) wild-type rat intestinal fatty acid binding protein
B15: 31M2, 72A (protein, listed as Rattus norvegicus)
chain: B1 chain with D31M
modifications: PEPTIDE (1)...(131) wild-type rat intestinal fatty acid binding protein
B16: 34A, 72A (protein, listed as Rattus norvegicus)
chain: B1 chain with D31G, D34A
modifications: PEPTIDE (1)...(131) wild-type rat intestinal fatty acid binding protein
B17: 31Y1, 72A (protein, listed as Rattus norvegicus)
chain: B1 chain with D31Y
modifications: PEPTIDE (1)...(131) wild-type rat intestinal fatty acid binding protein
B18: 31N2, 72A (protein, listed as Rattus norvegicus)
chain: B1 chain with D31N
modifications: PEPTIDE (1)...(131) wild-type rat intestinal fatty acid binding protein
B19: 34K, 72A (protein, listed as Rattus norvegicus)
chain: B1 chain with D31G, D34K
modifications: PEPTIDE (1)...(131) wild-type rat intestinal fatty acid binding protein
B20: 31Y2, 72A (protein, listed as Rattus norvegicus)
chain: B1 chain with D31Y
modifications: PEPTIDE (1)...(131) wild-type rat intestinal fatty acid binding protein
B21: 34G, 72A (protein, listed as Rattus norvegicus)
chain: B1 chain with D31G, D34G
modifications: PEPTIDE (1)...(131) wild-type rat intestinal fatty acid binding protein
B22: 31I1, 72A (protein, listed as Rattus norvegicus)
chain: B1 chain with D31I
modifications: PEPTIDE (1)...(131) wild-type rat intestinal fatty acid binding protein
B23: 34C, 72A (protein, listed as Rattus norvegicus)
chain: B1 chain with D31G, D34C
modifications: PEPTIDE (1)...(131) wild-type rat intestinal fatty acid binding protein

Assay: Probe fluorescence ratio response to arachidonic acid relative to ADIFAB2
Type: binding
Conditions: arachidonic acid; response relative to ADIFAB2
Outline: (§1)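 Each fatty acid's response was expressed relative to ADIFAB2, the rI-FABP-L72A probe, as ΔR/ΔRreference. ΔR is the change in the background-corrected two-wavelength intensity ratio R=Fλ1/Fλ2 from its analyte-free baseline R0. Emission was read near about 420-480 nm for unbound and about 495-580 nm for FFA-bound probe.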

| Molecule | DR/DR AA |
| --- | --- |
| B1 | 0.20 |
| B2 | 0.25 |
| B3 | 1.02 |
| B4 | 1.41 |
| B5 | 0.40 |
| B6 | 0.46 |
| B7 | 0.99 |
| B8 | 0.62 and 0.618 |
| B9 | 1.19 |
| B10 | 0.65 |
| B11 | 0.65 |
| B12 | 0.25 |
| B13 | 0.55 |
| B14 | 0.85 |
| B15 | 0.52 |
| B16 | 0.58 |
| B17 | 1.78 |
| B18 | 0.88 |
| B19 | 0.43 |
| B20 | 0.37 |
| B21 | 0.54 |
| B22 | 0.30 |
| B23 | 0.34 |

Assay: Probe fluorescence ratio response to linolenic acid relative to ADIFAB2
Type: binding
Conditions: response relative to ADIFAB2
Outline: as §1

| Molecule | DR/DR LNA |
| --- | --- |
| B1 | 0.14 |
| B2 | 0.44 |
| B3 | 1.49 |
| B4 | 1.62 |
| B5 | 0.78 |
| B6 | 0.76 |
| B7 | 1.03 |
| B8 | 0.57 and 0.571 |
| B9 | 1.18 |
| B10 | 0.91 |
| B11 | 0.72 |
| B12 | 0.27 |
| B13 | 0.82 |
| B14 | 0.90 |
| B15 | 0.57 |
| B16 | 0.57 |
| B17 | 1.61 |
| B18 | 1.06 |
| B19 | 1.33 |
| B20 | 0.80 |
| B21 | 0.29 |
| B22 | 0.41 |
| B23 | 0.33 |

Assay: Probe fluorescence ratio response to linoleic acid relative to ADIFAB2
Type: binding
Conditions: response relative to ADIFAB2
Outline: as §1

| Molecule | DR/DR LA |
| --- | --- |
| B1 | 0.16 |
| B2 | 0.40 |
| B3 | 1.47 |
| B4 | 1.76 |
| B5 | 0.38 |
| B6 | 0.66 |
| B7 | 1.15 |
| B8 | 0.60 and 0.604 |
| B9 | 1.16 |
| B10 | 0.75 |
| B11 | 0.74 |
| B12 | 0.30 |
| B13 | 0.74 |
| B14 | 0.91 |
| B15 | 0.41 |
| B16 | 0.57 |
| B17 | 1.75 |
| B18 | 1.04 |
| B19 | 0.61 |
| B20 | 0.36 |
| B21 | 0.33 |
| B22 | 0.17 |
| B23 | 0.59 |

Assay: Probe fluorescence ratio response to oleic acid relative to ADIFAB2
Type: binding
Conditions: response relative to ADIFAB2
Outline: as §1

| Molecule | DR/DR OA |
| --- | --- |
| B1 | 0.13 |
| B2 | 0.23 |
| B3 | 1.31 |
| B4 | 1.43 |
| B5 | 0.08 |
| B6 | 0.46 |
| B7 | 0.87 |
| B8 | 0.49 and 0.486 |
| B9 | 1.16 |
| B10 | 0.53 |
| B11 | 0.52 |
| B12 | 0.22 |
| B13 | 0.50 |
| B14 | 0.97 |
| B15 | 1.08 |
| B16 | 0.49 |
| B17 | 1.55 |
| B18 | 0.91 |
| B19 | 0.41 |
| B20 | 0.01 |
| B21 | 0.13 |
| B22 | −0.21 |
| B23 | 0.30 |

Assay: Probe fluorescence ratio response to palmitic acid relative to ADIFAB2
Type: binding
Conditions: response relative to ADIFAB2
Outline: as §1

| Molecule | DR/DR PA |
| --- | --- |
| B1 | 0.06 |
| B2 | 0.34 |
| B3 | 1.04 |
| B4 | 1.21 |
| B5 | 0.21 |
| B6 | 0.35 |
| B7 | 0.62 |
| B8 | 0.48 and 0.482 |
| B9 | 1.11 |
| B10 | 0.41 |
| B11 | 0.38 |
| B12 | 0.23 |
| B13 | 0.38 |
| B14 | 0.42 |
| B15 | 0.46 |
| B16 | 0.33 |
| B17 | 1.10 |
| B18 | 0.50 |
| B19 | 0.26 |
| B20 | 0.17 |
| B21 | 0.18 |
| B22 | 0.09 |
| B23 | 0.18 |
